We go through 2 substances from IntAct's records for PubMed 11846417.

One experiment has as its target actn2_human ACTN2 (UniProt P35609).
For another experiment, the target named is telt_human TCAP (UniProt O15273).
Chain of telt_human TCAP (O15273 whole entry): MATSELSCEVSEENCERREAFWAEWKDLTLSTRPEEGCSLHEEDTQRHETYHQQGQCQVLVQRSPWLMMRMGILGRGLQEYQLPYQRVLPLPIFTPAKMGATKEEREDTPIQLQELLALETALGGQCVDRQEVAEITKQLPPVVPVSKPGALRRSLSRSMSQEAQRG

Chain of actn2_human ACTN2 (P35609 whole entry): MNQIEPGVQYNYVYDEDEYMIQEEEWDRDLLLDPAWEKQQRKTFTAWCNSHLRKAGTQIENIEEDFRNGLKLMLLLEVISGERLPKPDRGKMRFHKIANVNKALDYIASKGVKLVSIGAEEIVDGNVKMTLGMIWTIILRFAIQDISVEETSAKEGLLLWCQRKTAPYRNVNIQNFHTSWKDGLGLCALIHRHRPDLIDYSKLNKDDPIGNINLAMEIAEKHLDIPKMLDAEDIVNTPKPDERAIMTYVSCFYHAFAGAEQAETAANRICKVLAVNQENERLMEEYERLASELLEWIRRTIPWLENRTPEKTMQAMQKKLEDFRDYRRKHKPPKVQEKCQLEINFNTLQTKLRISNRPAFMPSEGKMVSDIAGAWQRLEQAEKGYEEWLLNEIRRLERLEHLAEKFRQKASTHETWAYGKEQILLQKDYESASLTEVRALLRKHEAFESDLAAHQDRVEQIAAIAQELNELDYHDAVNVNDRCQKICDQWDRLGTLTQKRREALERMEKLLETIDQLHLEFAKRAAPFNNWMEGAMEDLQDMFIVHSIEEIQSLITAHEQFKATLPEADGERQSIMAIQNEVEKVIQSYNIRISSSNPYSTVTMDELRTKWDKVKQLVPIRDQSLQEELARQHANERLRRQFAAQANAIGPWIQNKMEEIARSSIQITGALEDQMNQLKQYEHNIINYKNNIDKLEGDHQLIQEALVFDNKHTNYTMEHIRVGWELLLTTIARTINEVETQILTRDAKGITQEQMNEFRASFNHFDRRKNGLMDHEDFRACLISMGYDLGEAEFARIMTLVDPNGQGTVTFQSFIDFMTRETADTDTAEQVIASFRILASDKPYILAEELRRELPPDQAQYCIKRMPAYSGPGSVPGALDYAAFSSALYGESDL

For the substance Titin (Homo sapiens), Q8WZ42 A743V, in the experiment with actn2_human ACTN2, the “effect of a mutation on the interaction” value is “decreasing interaction”.

Consider Titin (Homo sapiens), Q8WZ42 V54M, for which, in the experiment with telt_human TCAP, the “effect of a mutation on the interaction” value is “decreasing interaction”.
